Laboratory results reported in PMC11401910, “Dual client binding sites in the ATP-independent chaperone SurA” (Nature Communications, 2024).

What was measured:
OmpX = settings: ~75 pM double-labelled OmpX, 30 μM SurA variant, 20 mM Tris-HCl, 0.1 M urea, 0.02% Tween-20, pH 8.0, ~21 °C; apo-OmpX ~0.85
Description: Samples were measured at a volume of 100 μL in an 18 well sample chamber (81817, Ibidi) with the focal spot 50 μm above the cover glass on a custom-built confocal microscope (Supplementary Methods) at room temperature (~21 °C). […] Aged Trolox was prepared by adding 1 mM of Trolox to measurement buffer and incubating the sample overnight at room temperature on a rotary shaker to dissolve before being filtered using a 0.22 μm pore size membrane. Tween-20 (0.02% v/v) was added to prevent non-specific absorption to the glass slide.
The ptu files from the SymPhoTime64 software were converted into HDF5 data files using phconvert v0.9 (available at https://github.com/Photon-HDF5/phconvert). Each of these files was then merged to create one file for each condition. […] Firstly, the background was independently calculated for every 60 s period of measurement. […]
BVA[68] was used to assay for dynamics on the ms timescale occurring during bursts. This analysis compares the expected variance in Eraw based on shot noise against the measured variance in Eraw in each individual burst (si). […] To calculate si, we segmented each burst into consecutive windows of 5 photons, and calculated the standard deviation of all windows within the burst. […]

SurA-WT = biological target: T1, SurA-WT (Escherichia coli, UniProt P0ABZ6); format: binding; settings: pH 8
T1 construct: made in house; host or cells: E. coli BL21(DE3)
Description: All NMR experiments were performed on a 950-MHz Bruker Ascend Avance III HD NMR spectrometer equipped with either a Bruker 3 mm TCI or 5 mm TXO triple-resonance cryogenically cooled probe. Peptide binding experiments were performed in 5 mM EDTA, 20 mM Tris-HCl, pH 8.0 with 5 % (v/v) D2O at 25 °C. Binding experiments using full-length OMP sequences also contained 0.8 M urea. Data was acquired for ~16 h with the exception of OMP-containing experiments which were acquired for ~5 h. […] (2D ^1H-^13C SOFAST-HMQC)[70]. […] Errors in the intensity ratios for each peak between two spectra were obtained by propagating the errors according to:1 δR=R*δX/X+δY/Y where δR is the error in the intensity ratio, |R| is the value of the intensity ratio, X and Y are the intensity values for the peak in the first and second spectrum, respectively, and δX and δY are the noise floor values for the first and second spectrum, respectively.
Z-scores for intensity ratio and CSP data were calculated using:3 Zi=xi−μ/σ where xi is the value for a particular peak, and µ and σ are the mean and standard deviation for all peaks, respectively.
For assignment of SurA-WT Ile and Met residues (43 in total) each residue was individually mutated (Supplementary Table 3), and the effect of the mutation assessed by methyl-TROSY NMR. Samples contained 5–70 µM SurA variant. […]

SurA = settings: read-out: Kd, binding of full-length unfolded OmpX to SurA; cited from earlier work
Excerpt: (where Ar is an aromatic residue and X is any amino acid), or aromatic-enriched sequences containing an Ar-X-Ar-X-Pro motif. […] Both of these types of peak changes (shifts and/or broadening), can report on binding or conformational changes caused by binding at the location of the corresponding ^13CH3 probe[73],[74].

T1 sequence (P0ABZ6 other isoform, or with tags, fused parts or gaps): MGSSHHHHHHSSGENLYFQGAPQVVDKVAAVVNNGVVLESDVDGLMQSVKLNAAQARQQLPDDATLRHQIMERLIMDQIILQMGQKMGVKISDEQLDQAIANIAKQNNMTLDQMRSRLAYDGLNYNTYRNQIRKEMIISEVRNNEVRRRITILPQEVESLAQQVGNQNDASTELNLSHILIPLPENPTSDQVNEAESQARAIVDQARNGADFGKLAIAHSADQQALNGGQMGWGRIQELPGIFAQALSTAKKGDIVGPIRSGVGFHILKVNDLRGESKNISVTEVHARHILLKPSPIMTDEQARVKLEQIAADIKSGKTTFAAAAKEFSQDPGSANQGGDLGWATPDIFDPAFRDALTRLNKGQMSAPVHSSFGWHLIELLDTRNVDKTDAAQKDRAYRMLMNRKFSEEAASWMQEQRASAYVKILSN

Molecule	Maximum of the raw FRET distribution (Eraw) of OmpX bound to SurA variant (OmpX)	Interaction of unfolded OMP with SurA-WT domains by methyl-TROSY NMR, in words (SurA-WT)	Kd (SurA) [µM]
SurA-core: SurA construct lacking both PPIase domains (residues 172-389 deleted) (protein, left off: His6, N-terminal, state not stated) APQVVDKVAAVVNNGVVLESDVDGLMQSVKLNAAQARQQLPDDATLRHQIMERLIMDQIILQMGQKMGVKISDEQLDQAIANIAKQNNMTLDQMRSRLAYDGLNYNTYRNQIRKEMIISEVRNNEVRRRITILPQEVESLAQQVGNQNDASDAAQKDRAYRMLMNRKFSEEAASWMQEQRASAYVKILSN	~ 0.45		
OmpX: unfolded E. coli outer membrane protein OmpX, mature sequence residues 24-171 (protein) ATSTVTGGYAQSDAQGQMNKMGGFNLKYRYEEDNSPLGVIGSFTYTEKSRTASSGDYNKNQYYGITAGPAYRINDWASIYGVVGVGYGKFQTTEYPTYKHDTSDYGFSYGAGLQFNPMENVALDFSYEQSRIRSVDVGTWIAGVGYRF		regions in the core and P1 domains directly interact with OmpX, while P2 is largely uninvolved in OmpX binding	~1
